Results from US20220040297A1 (Chugai, published 2022).
Positions count from the first letter of the chain named. Numbers in names are those of the source.

B1: CE115HA000 K52I (antibody, name in Kabat numbering, V domains shown)
VH: QVQLVESGGGVVQPGRSLRLSCAASGFTFSNAWMHWVRQAPGKGLEWVAQIIAKSNNYATYYAESVKGRFTISRDDSKNSLYLQMNSLKTEDTAVYYCRYVHYGAYYGVDAWGQGTTVTVSS
VL: DIVMTQSPLSLPVTPGEPASISCRSSQSLVHSNRNTYLHWYQQKPGQAPRLLIYKVSNRFSGVPDRFSGSGSGTDFTLKISRVEAEDVGVYYCGQGTQVPYTFGQGTKLEIK
B2: CE115HA000 K52N (antibody, name in Kabat numbering, V domains shown)
VH: B1 VH with I52N
VL: B1 VL
B3: CE115HA000 K52R (antibody, name in Kabat numbering, V domains shown)
VH: B1 VH with I52R
VL: B1 VL
B4: CE115HA000 K52S (antibody, name in Kabat numbering, V domains shown)
VH: B1 VH with I52S
VL: B1 VL
B5: CE115HA000 K52W (antibody, name in Kabat numbering, V domains shown)
VH: B1 VH with I52W
VL: B1 VL
B6: CE115HA000 K52Y (antibody, name in Kabat numbering, V domains shown)
VH: B1 VH with I52Y
VL: B1 VL
B7: CE115HA000 K52bA (antibody, name in Kabat numbering, V domains shown)
VH: B1 VH with I52K, K54A
VL: B1 VL
B8: CE115HA000 K52bD (antibody, name in Kabat numbering, V domains shown)
VH: B1 VH with I52K, K54D
VL: B1 VL
B9: CE115HA000 K52bL (antibody, name in Kabat numbering, V domains shown)
VH: B1 VH with I52K, K54L
VL: B1 VL
B10: CE115HA000 K52bN (antibody, name in Kabat numbering, V domains shown)
VH: B1 VH with I52K, K54N
VL: B1 VL
B11: CE115HA000 K52bQ (antibody, name in Kabat numbering, V domains shown)
VH: B1 VH with I52K, K54Q
VL: B1 VL
B12: CE115HA000 K52bR (antibody, name in Kabat numbering, V domains shown)
VH: B1 VH with I52K, K54R
VL: B1 VL
B13: CE115HA000 K52bS (antibody, name in Kabat numbering, V domains shown)
VH: B1 VH with I52K, K54S
VL: B1 VL
B14: CE115HA000 K52bY (antibody, name in Kabat numbering, V domains shown)
VH: B1 VH with I52K, K54Y
VL: B1 VL
B15: CE115HA000 K64A (antibody, name in Kabat numbering, V domains shown)
VH: B1 VH with I52K, K67A
VL: B1 VL
B16: CE115HA000 K64D (antibody, name in Kabat numbering, V domains shown)
VH: B1 VH with I52K, K67D
VL: B1 VL
B17: CE115HA000 K64E (antibody, name in Kabat numbering, V domains shown)
VH: B1 VH with I52K, K67E
VL: B1 VL
B18: CE115HA000 K64Q (antibody, name in Kabat numbering, V domains shown)
VH: B1 VH with I52K, K67Q
VL: B1 VL
B19: CE115HA000 K64S (antibody, name in Kabat numbering, V domains shown)
VH: B1 VH with I52K, K67S
VL: B1 VL
B20: CE115HA000 K75T (antibody, name in Kabat numbering, V domains shown)
VH: B1 VH with I52K, K78T
VL: B1 VL
B21: CE115HA000 L78I (antibody, name in Kabat numbering, V domains shown)
VH: B1 VH with I52K, L81I
VL: B1 VL
B22: CE115HA000 N31A (antibody, name in Kabat numbering, V domains shown)
VH: B1 VH with N31A, I52K
VL: B1 VL
B23: CE115HA000 N31D (antibody, name in Kabat numbering, V domains shown)
VH: B1 VH with N31D, I52K
VL: B1 VL
B24: CE115HA000 N31F (antibody, name in Kabat numbering, V domains shown)
VH: B1 VH with N31F, I52K
VL: B1 VL
B25: CE115HA000 N31G (antibody, name in Kabat numbering, V domains shown)
VH: B1 VH with N31G, I52K
VL: B1 VL
B26: CE115HA000 N31H (antibody, name in Kabat numbering, V domains shown)
VH: B1 VH with N31H, I52K
VL: B1 VL
B27: CE115HA000 N31I (antibody, name in Kabat numbering, V domains shown)
VH: B1 VH with N31I, I52K
VL: B1 VL
B28: CE115HA000 N31K (antibody, name in Kabat numbering, V domains shown)
VH: B1 VH with N31K, I52K
VL: B1 VL
B29: CE115HA000 N31Q (antibody, name in Kabat numbering, V domains shown)
VH: B1 VH with N31Q, I52K
VL: B1 VL
B30: CE115HA000 N31R (antibody, name in Kabat numbering, V domains shown)
VH: B1 VH with N31R, I52K
VL: B1 VL
B31: CE115HA000 N31S (antibody, name in Kabat numbering, V domains shown)
VH: B1 VH with N31S, I52K
VL: B1 VL
B32: CE115HA000 N31W (antibody, name in Kabat numbering, V domains shown)
VH: B1 VH with N31W, I52K
VL: B1 VL
B33: CE115HA000 N31Y (antibody, name in Kabat numbering, V domains shown)
VH: B1 VH with N31Y, I52K
VL: B1 VL
B34: CE115HA000 N53A (antibody, name in Kabat numbering, V domains shown)
VH: B1 VH with I52K, N56A
VL: B1 VL
B35: CE115HA000 N53D (antibody, name in Kabat numbering, V domains shown)
VH: B1 VH with I52K, N56D
VL: B1 VL
B36: CE115HA000 N53G (antibody, name in Kabat numbering, V domains shown)
VH: B1 VH with I52K, N56G
VL: B1 VL
B37: CE115HA000 N53H (antibody, name in Kabat numbering, V domains shown)
VH: B1 VH with I52K, N56H
VL: B1 VL
B38: CE115HA000 N53I (antibody, name in Kabat numbering, V domains shown)
VH: B1 VH with I52K, N56I
VL: B1 VL
B39: CE115HA000 N53K (antibody, name in Kabat numbering, V domains shown)
VH: B1 VH with I52K, N56K
VL: B1 VL
B40: CE115HA000 N53Q (antibody, name in Kabat numbering, V domains shown)
VH: B1 VH with I52K, N56Q
VL: B1 VL
B41: CE115HA000 N53S (antibody, name in Kabat numbering, V domains shown)
VH: B1 VH with I52K, N56S
VL: B1 VL
B42: CE115HA000 N53W (antibody, name in Kabat numbering, V domains shown)
VH: B1 VH with I52K, N56W
VL: B1 VL
B43: CE115HA000 N54A (antibody, name in Kabat numbering, V domains shown)
VH: B1 VH with I52K, N57A
VL: B1 VL
B44: CE115HA000 N54D (antibody, name in Kabat numbering, V domains shown)
VH: B1 VH with I52K, N57D
VL: B1 VL
B45: CE115HA000 N54F (antibody, name in Kabat numbering, V domains shown)
VH: B1 VH with I52K, N57F
VL: B1 VL

Target: T1, CD3ε homodimer protein (human, UniProt P07766 23-126, limits assumed, sulfo-tag or biotin label in some ECL assays)
T1 construct: also called human CD3ε homodimer protein; CD3 (CD3ε)
T1 sequence (P07766 23-126 limits assumed): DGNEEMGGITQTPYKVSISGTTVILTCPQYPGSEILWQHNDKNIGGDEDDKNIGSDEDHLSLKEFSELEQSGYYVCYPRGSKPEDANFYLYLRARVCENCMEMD
Experiment: SPR, CD3ε homodimer on chip;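 also: biacore SPR with antibody variants flowed as analyte over amine-coupled CD3ε homodimer on a CM chip, bound amount of each single-residue H chain variant over that of parent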
Procedure: An appropriate amount of CD3ε homodimer protein was immobilized onto Sensor chip CM4 (GE Healthcare Japan Corp.) by the amine coupling method. Then, the antibody having an appropriate concentration was injected thereto as an analyte and allowed to interact with the CD3ε homodimer protein on the sensor chip. Then, the sensor chip was regenerated by the injection of 10 mmol/L glycine-HCl (pH 1.5). The assay was conducted at 25° C., and HBS-EP+ (GE Healthcare Japan Corp.) was used as a running buffer. […] Each parameter was calculated using Biacore T200 Evaluation Software (GE Healthcare Japan Corp.).
Specifically, when the amount of the antibody comprising CE115HA000 bound was defined as X and the amount of the H chain one-amino acid altered form bound was defined as Y, a value of Z (ratio of amounts bound)=Y/X was used.

Row | Binder | ratio of amounts bound vs CE115HA000
1 | B1 | 0.33
2 | B2 | 0.34
3 | B3 | 0.92
4 | B4 | 0.28
5 | B5 | 0.22
6 | B6 | 0.18
7 | B7 | 0.67
8 | B8 | 0.27
9 | B9 | 0.61
10 | B10 | 0.27
11 | B11 | 0.6
12 | B12 | 1.11
13 | B13 | 0.68
14 | B14 | 0.74
15 | B15 | 0.32
16 | B16 | 0.72
17 | B17 | 0.74
18 | B18 | 0.89
19 | B19 | 0.84
20 | B20 | 9.34
21 | B21 | 1.34
22 | B22 | 0.5
23 | B23 | 0.37

Row | Binder | ratio of amounts bound vs CE115HA000
24 | B24 | 0.62
25 | B25 | 0.39
26 | B26 | 0.68
27 | B27 | 0.81
28 | B28 | 1.01
29 | B29 | 0.49
30 | B30 | 1.14
31 | B31 | 0.81
32 | B32 | 0.63
33 | B33 | 0.64
34 | B34 | 0.7
35 | B35 | 0.39
36 | B36 | 0.5
37 | B37 | 0.76
38 | B38 | 0.68
39 | B39 | 0.78
40 | B40 | 1.1
41 | B41 | 0.83
42 | B42 | 0.88
43 | B43 | 0.85
44 | B44 | 0.62
45 | B45 | 1.12
